We go through one substance from article PMC3145792.

The assay deals with SECRET domain (smallpox virus-encoded chemokine receptor domain) of the vTNFR CrmD encoded by ectrom (ectromelia virus). The assay can be described thus: crystal structure.

As a reminder, the stoichiometry N is the number of molecules, sites or subunits per partner or assembly. The substance “chemokine domain of human CX3CL1 (residues 1-76) (from UniProt P78423 25-100) (domain or fragment)” displayed a stoichiometry N of 1.
